How the values were obtained:
[1] = system: W624-P625 imide bond of BMAL1 TAD; assay: 15N-1H ZZ-exchange NMR kinetics of TAD switch isomerization; set-up: species or system mouse
[2] = system: Bmal1^−/−; Per2^Luc mouse fibroblasts; assay: Circadian period of complemented Bmal1-/-; format: cell-based; conditions: stable complementation, 37°C, dexamethasone-synchronized
[3] = system: Bmal1^−/−; Per2^Luc fibroblasts complemented with WT or trans-locked Bmal1; assay: CsA-induced period change in complemented Bmal1-/-; format: cell-based, mouse; conditions: particularly at 10 μM CsA
cyclophilin family = conditions: active site; ref Davis et al., 2010; cited from earlier work
U2OS Bmal1-dLuc cells = assay: Circadian period of U2OS Bmal1-dLuc cells with inhibitors; format: cell-based, human; conditions: 0.3% DMSO, n = 3 replicates with 2 independent assays
MLL1 = conditions: ref Wang et al., 2010; cited from earlier work
BMAL1 TAD = assay: Cyclophilin acceleration of TAD switch isomerization by 15N-1H ZZ-exchange NMR; format: biochemical, mouse; conditions: room temperature (22.68°C), 400 μM 15N BMAL1 TAD + 100 μM cyclophilin, 20 mM HEPES pH 7.0 (pH 7.5 for His6GST-PPIL3), 100 mM NaCl, 2 mM TCEP
BMAL1 = conditions: screen for interacting partners; ref Lipton et al., 2015; cited from earlier work
[4] = 25 °C, extrapolated from Eyring plot
[5] = 37 °C, extrapolated from Eyring plot
[6] = 55 °C, 400 μM 15N BMAL1 TAD, 10 mM MES pH 6.5, 50 mM NaCl, 10% D2O
[7] = 60 °C, 400 μM 15N BMAL1 TAD, 10 mM MES pH 6.5, 50 mM NaCl, 10% D2O
[8] = 65 °C, 400 μM 15N BMAL1 TAD, 10 mM MES pH 6.5, 50 mM NaCl, 10% D2O

BMAL1 TAD: Mouse BMAL1 TAD (residues 579–626), recombinant
overall exchange lifetime ([1]; 25 °C): approximately 10 minutes | Rate of isomerization cis➔trans [1, 4]: 0.00458 s⁻¹ | Rate of isomerization trans➔cis [1, 4]: 0.00264 s⁻¹ | Time per isomerization event cis➔trans [1, 4]: 218.34 s | Time per isomerization event trans➔cis [1, 4]: 378.78 s | detection of isomerization by ZZ exchange ([1]; 25 °C, in words): too slow to be detected at room temperature | Rate of isomerization cis➔trans [1, 5]: 0.0233 s⁻¹ | Rate of isomerization trans➔cis [1, 5]: 0.0135 s⁻¹ | Time per isomerization event cis➔trans [1, 5]: 42.92 s | Time per isomerization event trans➔cis [1, 5]: 74.07 s | Time per isomerization event cis➔trans ([1]; 55 °C): 4.65 s | Time per isomerization event trans➔cis ([1]; 55 °C): 8.06 s | Rate of isomerization cis➔trans [1, 6]: 0.215 s⁻¹ | Rate of isomerization trans➔cis [1, 6]: 0.124 s⁻¹ | Time per isomerization event cis➔trans ([1]; 60 °C): 2.62 s | Time per isomerization event trans➔cis ([1]; 60 °C): 4.55 s | Rate of isomerization cis➔trans [1, 7]: 0.382 s⁻¹ | Rate of isomerization trans➔cis [1, 7]: 0.22 s⁻¹ | Time per isomerization event cis➔trans ([1]; 65 °C): 1.50 s | Time per isomerization event trans➔cis ([1]; 65 °C): 2.60 s | Rate of isomerization cis➔trans [1, 8]: 0.667 s⁻¹ | Rate of isomerization trans➔cis [1, 8]: 0.384 s⁻¹ | temperature at which exchange cross peaks first appeared ([1]; ZZ exchange at increasing temperature): 55 °C

wild type Bmal1: Flag-tagged mouse Bmal1 stably complemented in cells
circadian period [2]: approximately 23 hours

Cyclosporin A [CsA]
switch-independent effect on period [3]: Switch-independent changes in period | affinity for cyclophilin family (cyclophilin family): 5 to 500 nM | effect on circadian period (U2OS Bmal1-dLuc cells): dose-dependent lengthening of circadian period with low doses

PPIE: human nuclear cyclophilin [reference compound]
binding to MLL1 (MLL1): binds to the histone methyltransferase MLL1 to modulate its activity | activity on TAD switch isomerization, in words (BMAL1 TAD): significantly increased the rate of isomerization in BMAL1

CC1(C)[C@H](C(=O)O[C@H](C#N)c2cccc(Oc3ccccc3)c2)[C@@H]1C=C(Br)Br [Deltamethrin]
effect on circadian period (U2OS Bmal1-dLuc cells): did not elicit a change in period

PPIH: human nuclear cyclophilin [reference compound]
activity on TAD switch isomerization, in words (BMAL1 TAD): significantly increased the rate of isomerization in BMAL1

PPIA: peptidyl prolyl isomerase A, human cyclophilin
co-immunoprecipitation with BMAL1 (BMAL1): co-immunoprecipitated with BMAL1

PPIF: mitochondrial cyclophilin [reference compound]
activity on TAD switch isomerization, in words (BMAL1 TAD): at least as active on the TAD as the top-ranked nuclear cyclophilins

— PMC5484534 (Molecular cell, 2017)
